# Assay results as given in patent US20230242624A1 (NEURIMMUNE, published 2023).
# Where a chain is given by its changes, count along the chain named. “And” between values parts separate entries of the source, which are not always exact repeats. Equal values may be shown once.
# B1: NI-607.274_B7 (antibody, V domains shown)
# VH: QVQLVESGGGRVQPGRSLRLSCAASGFTFSTHGMHWVRQVPGKGLDWITGITYDGSDQFYADSVKGRFTISRDNSKNMLYLQMNSLRAEDTAVYFCAKDLEWLTNYLDHWGQGTLVTVSS
# VL: DVVMTQSPGTLSVSPGERATLSCRASQNINYNLAWYQQKPGQAPRLLIFDASTRATGIPARFTGSGSGTEFTLTISSLQSEDFAVYYCQQSNAWLTFGGGTKVEIK
# B2: NI-607.532_B6 (antibody, V domains shown)
# VH: QVQLVQSGAEVKKPGASVKVSCKASGYTFTSYDINWVRQATGQGLEWMGWMNPNSGNTGYAQKFQGRVTMTRNTSISTAYMELSSLRSEDTAVYYCARVVSLTGFFDYWGQGTLVTVSS
# VL: SYELTQPPSVSVAPGKTARITCGGNNIGSKNVHWYQQKPGQAPVLVVYDDSDRPSGIPERFSGSNSGNTATLTISRVEAGDEADYYCQVWDSSSDPWVFGGGTKLTVL
# B3: NI-607.429_E4 (antibody, V domains shown)
# VH: QVQLVESGGGLVQPGGSLRLSCAASGFTVSSNYMSWVRQAPGKGLEWVSVIYSGGSTFYADSVKGRFTISRDNSKNTLYLQMNSLRAEDTAVYYCARDLQESGMDVWGQGTTVTVSS
# VL: DIQLTQSPSSVSASVGDRVTITCRASQGISSWLAWYQQKPGKAPKLLIYAASSLQSGVPSRFSGSGSGTDFTLTISSLQPEDFATYYCQQANSFPTFGQGTRLEIK
# B4: NI-607.532_C11 (antibody, V domains shown)
# VH: B3 VH with V12I, F58Y, Y79F, E101Y, S102Y
# VL: DIQMTQSPSFLSASVGDRVTITCRASQGISSYLAWYQQKPGKAPKLLIYAASTLQSGVPSRFSGSGSGTEFTLTISSLQPEDFATYYCQQLDSYPPRDTFGQGTKVEIK
# B5: NI-607.532_F9 (antibody, V domains shown)
# VH: EVQLVESGGNLIQPGGSLRLSCAASGFTVSSNYMSWVRQAPGKGLEWVSVIYSGGSTYYADSVKGRFTISRDNSRNTLYLQMNSLRAEDTAVYFCARDRVVRGVRGNGMDVWGQGTTVTVSS
# VL: AIRMTQSPSSLSASVGDRVTITCQASQDINIYLNWYQQRPGKAPKLLIYDASNLETGVPSRFSGSGSGTDFTFTISSLQPEDIATYYCHQYDNLPRTFGQGTKVDIK
# B6: NI-607.531_E7 (antibody, V domains shown)
# VH: EVQLVESGGGVVQPGRSLRLSCAASGFTFNFYSMHWVRQVPGKGLEWVAVISFDGSTKHYAESLRGRFAVSRDNSKSTLYLQMNSLRPEDTAVYYCASPPLSPIPAAGTPLDYWGQGTLVTVSS
# VL: EIVMTQSPDSLAVSLGERATINCKSSQSIFYRSDDKDFLAWYQQKPGQPPKLLISWASTRESGVPDRFSGSGSGTDFTLTISSLQAEDVAVYYCQQFYYTPFTFGPGTKLEIK
# notes: also called F31 E7
# B7: NI-607.426_F11 (antibody, V domains shown)
# VH: QVQLVESGGGLVQPGGSLRLSCAASGFTFSSYWMSWVRQAPGKGLEWVANIKQDGSEKYYVDSVKGRFTISRDNAKNSLYLQMNSLRAEDTAVYYCARGLVGQWLGVDYWGQGTLVTVSS
# VL: QSVLTQPHSVSESPGKTVTISCTGSSGSIASNYVQWYQQRPGSAPTTVIYEDNQRPSGVPDRFSGSIDSSSNSASLTISGLKTEDEADYYCQSYDSSNWVFGGGTKLTVL
# B8: NI-607.529_B9 (antibody, V domains shown)
# VH: QVQLQESGPGLVKPSETLSLTCTVSGGSISSSSYYWGWIRQPPGKGLEWIGNIYYSGSTYYNPSLKSRVTISVDTSKNQFSLKLNSVTAADTAVYFCARLLWLRGSYYWGQGTLVTVSS
# VL: B7 VL with Q1S, S2Y, V3E
# B9: NI-607.429_B9 (antibody, V domains shown)
# VH: EVQLVESGGGLVQPGGSLRLSCAASGFTFSSYWMSWVRQAPGKGLEWVANIKQDGSEKYYVDSVKGRFTISRDNAKNSLYLQMNSLRAEDTAVYYCASLFWRRGSFDPWGQGTLVTVSS
# VL: QSVLTQPHSVSESPGKTVTISCTRSTGSIASNYVQWYQQRPGSAPTTVIYEDNQRPSGVPDRFSGSIDSSSNSASLTISGLKTEDEADYYCQSYDTSSYWVFGGGTKLTVL
# B10: NI-607.532_F3 (antibody, V domains shown)
# VH: EVQLVQSGAEVKKPGESLKISCKGFGYIFSNDWIGWVRQKPGKGLEWMGIIYPGDSDTRYSPSFRGQVTISADKSVSTAYLQWDSLKASDTAVYYCTRPRYTTMIVGSNPFDVWGQGTTVTVSS
# VL: QSVLTQPPSVSGAPGQRVTISCTGSSSNIGGGYDVHWYQKLPGTAPKLLIFDNDNRPSGVPDRFSGSKSDTSASLTITGLQAEDEADYFCQSYDSSLSGSGVVFGGGTKLTVL
# B11: NI-607.532_D3 (antibody, V domains shown)
# VH: EVQLVQSGAEVKRPGASVKVSCKASGYHFTDYYIHWVRQAPGQGLEWMGWINPNSGGTNYAQKFQGRVTMTRDTSISTAYMELSRLRSDDTAVYYCARVYYYDSSSSADYWGQGTLVTVSS
# VL: not shown
# B12: NI-607.427_C5 (antibody, V domains shown)
# VH: QVQLVQSGAEVKKPGASVKVSCKASGYTFTSYGISWVRQAPGQGLEWMGWISAYNGNTNYAQKLQGRVTMTTDTSTSTAYMELRSLRSDDTAVYYCARDNRAGWDQLDYWGQGTLVTVSS
# VL: not shown
# B13: NI-607.429_E4 IgG4 (antibody, V domains shown)
# VH: B3 VH
# VL: B3 VL
# B14: NI-607.532_D3 IgG4 (antibody, V domains shown)
# VH: B11 VH
# VL: not shown
# Biological target: SARS-CoV-2 Spike (S) protein on vesicular stomatitis virus (VSV) pseudoviruses (SARS-CoV-2, UniProt P0DTC2 14-1273)
# Test: cell-based or functional assay
row,Binder,"IC50, pseudovirus entry assay (luciferase, HEK 293T-ACE2 cells) [µg/mL]"
1,B1,> 100
2,B2,100
3,B3,0.035
4,B4,0.0872
5,B5,0.364
6,B6,3.9
7,B7,> 100
8,B8,1.9
9,B9,7.1
10,B10,11.7
11,B11,2.1
12,B12,> 100

# Biological target: T1, BSA (Sigma-Aldrich) (bovine, UniProt P02769 25-607)
# T1 construct: also called bovine serum albumin; BSA control
# Test: direct ELISA on coated BSA
row,Binder,binding result
1,B1,no binding (tested: 400 nM)
2,B2,no binding (tested: 400 nM)
3,B3,no binding (tested: 400 nM)
4,B4,no binding (tested: 400 nM)
5,B7,no binding (tested: 400 nM)
6,B8,no binding (tested: 400 nM)
7,B9,no binding (tested: 400 nM)
8,B11,no binding (tested: 400 nM)
9,B12,no binding (tested: 400 nM)

# Biological target: T2, SARS-CoV-2-S1 (RBD)-His protein (Trenzyme) (SARS-CoV-2, UniProt P0DTC2 319-541)
# Test: direct ELISA on coated RBD-His
row,Binder,EC50 [nM]
1,B1,0.021
2,B2,0.0045
3,B3,0.0086
4,B4,0.013
5,B5,0.0025
6,B6,0.027
7,B7,0.017
8,B8,0.034
9,B9,0.014
10,B10,0.019
11,B11,0.0049
12,B12,0.014

# Biological target: T2, SARS-CoV-2-S1 (RBD)-His protein …
# Test: competition ELISA, RBD binding to coated ACE2
row,Binder,IC50
1,B3,~0.345 µg/mL and ~2.3 nM
2,B4,~1.12 µg/mL and ~7.44 nM
3,B13,~0.699 µg/mL and ~4.65 nM
4,B5,~0.668 µg/mL and ~4.4 nM
5,B11,~0.457 µg/mL and ~3 nM
6,B14,~0.457 µg/mL and ~3 nM
7,B12,~2.15 µg/mL and ~14.3 nM

# Biological target: T2, SARS-CoV-2-S1 (RBD)-His protein …
# Test: iQue flow cytometry, antigen-coated beads
row,Binder,EC50 [nM]
1,B1,0.67
2,B2,1.1
3,B3,1.9
4,B4,2.4
5,B5,3.3
6,B6,1.3
7,B7,0.89
8,B8,1
9,B9,1.87
10,B10,1.2
11,B11,1
12,B12,3.2

# Biological target: recombinant SARS-CoV Spike protein (RBD, His tag) (SARS-CoV, UniProt P59594 306-527)
# Test: iQue flow cytometry, antigen-coated beads
row,Binder,EC50 [nM]
1,B2,4.2
2,B5,1000
3,B6,600
4,B8,20
5,B10,1.3
6,B11,1000
7,B12,3

# Biological target: T3, MERS-CoV Spike protein fragment (RBD, aa 367-606, His tag) (MERS-CoV, UniProt K9N5Q8 367-606)
# T3 sequence: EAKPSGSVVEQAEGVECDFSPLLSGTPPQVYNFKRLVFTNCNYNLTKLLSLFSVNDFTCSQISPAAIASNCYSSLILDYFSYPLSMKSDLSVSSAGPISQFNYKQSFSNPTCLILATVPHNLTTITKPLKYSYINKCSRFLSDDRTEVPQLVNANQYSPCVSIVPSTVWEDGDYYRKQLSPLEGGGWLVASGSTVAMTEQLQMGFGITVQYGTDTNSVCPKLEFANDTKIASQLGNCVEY
# Test: iQue flow cytometry, antigen-coated beads
row,Binder,EC50 [nM]
1,B1,900
2,B2,1000
3,B3,200
4,B4,1000
5,B5,1000
6,B6,800
7,B7,1000
8,B8,300
9,B9,600
10,B10,1000
11,B11,1000
12,B12,600

# Biological target: T2, SARS-CoV-2-S1 (RBD)-His protein …
# Test: competition ELISA, RBD binding to coated ACE2
# Remark: another data set of the same source
row,Binder,IC50 [nM]
1,B1,7.8
2,B3,0.275
3,B4,0.826
4,B5,0.775
5,B6,3.67
6,B7,1.14
7,B8,0.116
8,B9,0.074
9,B10,0.353
10,B11,0.917
11,B12,2.88
